From the supplement of paper PMC7125110
± gives the standard error. Fewer inactive variants are shown than the library holds.

B1: glmS ribozyme (parent)
chain: AUAAAAGCGCCAGAACUACAGAAAUGUAGUUGACGAGGAGGAGGUUUAUCGAAUUUUCGGCGGAUGCCUCCAAA

Columns and labels:
Settings in all cases: with glucosamine-6-phosphate
glucosamine-6-phosphate [1] = variants of: B1; assay: self-cleavage kobs at 640 uM GlcN6P; higher = faster cleavage; RNA array
Outline: (§1)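 In situ transcription by E. coli RNA polymerase produced barcoded ribozyme variants on sequenced MiSeq chips, and a hybridised Cy3 probe tracked them at 37 °C. Glucosamine-6-phosphate was flowed in at 40 μM to 10 mM in HEPES/KCl/Mg(OAc)2 buffer. kcat and KM were taken from weighted Michaelis–Menten fits of kobs values from exponential decay fits.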

glucosamine-6-phosphate [2] = variants of: B1; assay: self-cleavage kobs at 2500 uM GlcN6P; higher = faster cleavage; RNA array
Outline: as §1

glucosamine-6-phosphate [3] = variants of: B1; assay: self-cleavage kobs at 10000 uM GlcN6P; higher = faster cleavage; RNA array
Outline: as §1

| Variant | self-cleavage kobs at 640 uM GlcN6P (glucosamine-6-phosphate [1]) | self-cleavage kobs at 2500 uM GlcN6P (glucosamine-6-phosphate [2]) | self-cleavage kobs at 10000 uM GlcN6P (glucosamine-6-phosphate [3]) |
| --- | --- | --- | --- |
| A15C C16G G43U U56C A64U C68A | < 1e-05 s⁻¹ | – | – |
| G13A U30G G41U U46C G63C | < 1e-05 s⁻¹ | < 1e-05 s⁻¹ | – |
| A12G G32U G44C G60A C70G | < 1e-05 s⁻¹ | – | – |
| C11U A15U G38A A53U | < 1e-05 s⁻¹ | – | – |
| A12C U31C A39G | 0.000185 ± 3.9e-05 s⁻¹ | 0.00135 ± 0.00023 s⁻¹ | 0.00124 ± 0.00028 s⁻¹ |
| A14G C16U U45C | 0.000986 ± 0.00024 s⁻¹ | 0.00371 ± 0.00065 s⁻¹ | – |
| A14U G35A A64G | < 1e-05 s⁻¹ | – | – |
| A14C G59C C71A | < 1e-05 s⁻¹ | – | – |
| A12U C34G G51U U57A U65G | < 1e-05 s⁻¹ | – | – |
| A12C G13U A36U | < 1e-05 s⁻¹ | < 1e-05 s⁻¹ | – |
| A12U A48G U49G | 6.79e-05 ± 3.2e-05 s⁻¹ | – | – |
| A12G G41A G59U | < 1e-05 s⁻¹ | < 1e-05 s⁻¹ | – |
| G13A A42C G44U | < 1e-05 s⁻¹ | – | – |
| A14U C50G G62A | 0.000193 ± 8.2e-05 s⁻¹ | – | – |
| A15U U46G A53U C67U | 6.64e-05 ± 1.4e-05 s⁻¹ | – | – |
| A15G G66U C71U | 0.000559 ± 0.00011 s⁻¹ | 0.00142 ± 0.00041 s⁻¹ | – |
| C11G C70G | 9.08e-05 ± 1.6e-05 s⁻¹ | 5.33e-05 ± 1.4e-05 s⁻¹ | 2.25e-05 ± 9.6e-06 s⁻¹ |
| A12U U30A G38U | < 1e-05 s⁻¹ | – | – |
| C11U A15G C70U | 0.000677 ± 0.00015 s⁻¹ | 0.00215 ± 0.00061 s⁻¹ | – |
| G13A U45A U49A | < 1e-05 s⁻¹ | < 1e-05 s⁻¹ | – |
| C11U U47A A48C C61A C70U C71A | < 1e-05 s⁻¹ | < 1e-05 s⁻¹ | – |

| Variant | self-cleavage kobs at 640 uM GlcN6P (glucosamine-6-phosphate [1]) | self-cleavage kobs at 2500 uM GlcN6P (glucosamine-6-phosphate [2]) | self-cleavage kobs at 10000 uM GlcN6P (glucosamine-6-phosphate [3]) |
| --- | --- | --- | --- |
| A12G G38C C68G | < 1e-05 s⁻¹ | < 1e-05 s⁻¹ | – |
| C11G G13C A48G | < 1e-05 s⁻¹ | < 1e-05 s⁻¹ | – |
| C11G A39C | < 1e-05 s⁻¹ | < 1e-05 s⁻¹ | < 1e-05 s⁻¹ |
| A14U G38A A53G | < 1e-05 s⁻¹ | – | – |
| A12U A52U G60A | < 1e-05 s⁻¹ | – | – |
| C11G A53U U55G C67G | 0.000112 ± 4.8e-05 s⁻¹ | – | – |
| A15U G41C G44U A48U U49A G51U C67U | < 1e-05 s⁻¹ | – | – |
| A12C G32A U54G | 2.31e-05 ± 1.1e-05 s⁻¹ | 3.03e-05 ± 9.9e-06 s⁻¹ | 0.00014 ± 2.3e-05 s⁻¹ |
| A14U G43C | < 1e-05 s⁻¹ | < 1e-05 s⁻¹ | < 1e-05 s⁻¹ |
| A15U G40C A52U | < 1e-05 s⁻¹ | – | – |
| A15G G38U | < 1e-05 s⁻¹ | – | – |
| A12U A15U C68G | 8.06e-05 ± 2.7e-05 s⁻¹ | – | – |
| G13C G29A G40C | < 1e-05 s⁻¹ | – | – |
| A14G G38U G66A | < 1e-05 s⁻¹ | – | – |
| G13U A15U C70U | 3.4e-05 ± 9.4e-06 s⁻¹ | 7.46e-05 ± 2.2e-05 s⁻¹ | 5.88e-05 ± 1.3e-05 s⁻¹ |
| A12G U55A | 0.000161 ± 2.2e-05 s⁻¹ | 0.000248 ± 4e-05 s⁻¹ | 0.00094 ± 8.5e-05 s⁻¹ |
| A15G U31C A33C A52U U54C | < 1e-05 s⁻¹ | < 1e-05 s⁻¹ | – |
| A14G C16A G40A | 0.000169 ± 3e-05 s⁻¹ | 0.00023 ± 6.8e-05 s⁻¹ | – |
| A12C A15U A39G | 0.000865 ± 0.00025 s⁻¹ | 0.00201 ± 0.00075 s⁻¹ | 0.003 ± 0.00075 s⁻¹ |
| A14G A33G G41U A48C U69G | < 1e-05 s⁻¹ | < 1e-05 s⁻¹ | – |
| C11U C67A C71U | 4.57e-05 ± 1.8e-05 s⁻¹ | 5.18e-05 ± 1.8e-05 s⁻¹ | – |

| Variant | self-cleavage kobs at 640 uM GlcN6P (glucosamine-6-phosphate [1]) | self-cleavage kobs at 2500 uM GlcN6P (glucosamine-6-phosphate [2]) | self-cleavage kobs at 10000 uM GlcN6P (glucosamine-6-phosphate [3]) |
| --- | --- | --- | --- |
| A15U G35A C68U | < 1e-05 s⁻¹ | < 1e-05 s⁻¹ | – |
| A12U C67G C70U | 0.000172 ± 3.8e-05 s⁻¹ | 0.000623 ± 0.00017 s⁻¹ | – |
| C11U A12G C67A | 8.5e-05 ± 2e-05 s⁻¹ | 0.000771 ± 0.00025 s⁻¹ | – |
| A12U G35C C70U | < 1e-05 s⁻¹ | < 1e-05 s⁻¹ | – |
| C11G G43C U45C | < 1e-05 s⁻¹ | < 1e-05 s⁻¹ | – |
| A15U A28C A33U | < 1e-05 s⁻¹ | – | – |
| A12G G29U G37C | < 1e-05 s⁻¹ | < 1e-05 s⁻¹ | – |
| A14U C16A G35C G43C A53C C61U | < 1e-05 s⁻¹ | < 1e-05 s⁻¹ | – |
| C11G U31A U47C C61G | < 1e-05 s⁻¹ | < 1e-05 s⁻¹ | – |
| G13A A14G G29C C50G | 0.000185 ± 6.9e-05 s⁻¹ | – | – |
| G13C A48U A53U C61G | < 1e-05 s⁻¹ | – | – |
| C11G C71G | 0.000382 ± 0.00018 s⁻¹ | – | – |
| A12C A14C A48U G60A | < 1e-05 s⁻¹ | – | – |
| A12C G41A A48C | < 1e-05 s⁻¹ | – | – |
| A12G G29A A36G U49C U57G C70A | < 1e-05 s⁻¹ | – | – |
| A12U G29A U31C | 0.000169 ± 4.1e-05 s⁻¹ | 0.00041 ± 0.00015 s⁻¹ | 0.000943 ± 0.00018 s⁻¹ |
| A12G G43A U46G U69G | < 1e-05 s⁻¹ | < 1e-05 s⁻¹ | – |
| A15G U49G U65G C70A | 0.00349 ± 0.0014 s⁻¹ | – | – |
| A14G U54C C68G | 0.000112 ± 3e-05 s⁻¹ | 7.7e-05 ± 1.8e-05 s⁻¹ | – |
| A15G G51C A52G G62A | < 1e-05 s⁻¹ | < 1e-05 s⁻¹ | – |
